Measurements reported in publication PMC2952866 (Nucleic Acids Research, 2010).

Experiments:
Assay in all cases: SEC + co-IP
Mcm2 = biological target: T1, Mcm2 (Saccharomyces cerevisiae, UniProt P29469 1-868)
T1 sequence: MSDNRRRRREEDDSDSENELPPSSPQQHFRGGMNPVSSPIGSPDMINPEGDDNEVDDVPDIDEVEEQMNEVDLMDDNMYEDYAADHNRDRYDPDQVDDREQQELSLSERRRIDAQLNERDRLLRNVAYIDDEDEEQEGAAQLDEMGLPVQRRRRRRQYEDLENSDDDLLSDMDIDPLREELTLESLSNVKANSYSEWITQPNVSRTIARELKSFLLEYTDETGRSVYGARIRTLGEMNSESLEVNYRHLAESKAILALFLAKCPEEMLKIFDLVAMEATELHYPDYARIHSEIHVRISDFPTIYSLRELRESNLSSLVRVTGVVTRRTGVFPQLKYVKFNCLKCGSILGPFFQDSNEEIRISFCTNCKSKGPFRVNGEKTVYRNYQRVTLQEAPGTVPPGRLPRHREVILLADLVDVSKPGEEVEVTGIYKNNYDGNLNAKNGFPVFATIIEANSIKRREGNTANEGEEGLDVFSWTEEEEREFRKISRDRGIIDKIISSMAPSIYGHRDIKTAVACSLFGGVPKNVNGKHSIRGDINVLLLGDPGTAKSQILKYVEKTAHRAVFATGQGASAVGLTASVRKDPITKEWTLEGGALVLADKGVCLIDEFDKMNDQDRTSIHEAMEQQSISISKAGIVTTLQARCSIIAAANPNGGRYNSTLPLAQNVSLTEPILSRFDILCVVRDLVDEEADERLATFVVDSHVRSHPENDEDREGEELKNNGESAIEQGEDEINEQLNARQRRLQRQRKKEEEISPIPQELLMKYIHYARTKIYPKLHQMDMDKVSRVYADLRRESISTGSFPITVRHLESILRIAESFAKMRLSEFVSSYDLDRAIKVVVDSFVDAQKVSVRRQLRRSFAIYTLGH

Mcm6 = Mcm6 (Saccharomyces cerevisiae, UniProt P53091 1-1017)
Sequence of Mcm6 (P53091 whole entry): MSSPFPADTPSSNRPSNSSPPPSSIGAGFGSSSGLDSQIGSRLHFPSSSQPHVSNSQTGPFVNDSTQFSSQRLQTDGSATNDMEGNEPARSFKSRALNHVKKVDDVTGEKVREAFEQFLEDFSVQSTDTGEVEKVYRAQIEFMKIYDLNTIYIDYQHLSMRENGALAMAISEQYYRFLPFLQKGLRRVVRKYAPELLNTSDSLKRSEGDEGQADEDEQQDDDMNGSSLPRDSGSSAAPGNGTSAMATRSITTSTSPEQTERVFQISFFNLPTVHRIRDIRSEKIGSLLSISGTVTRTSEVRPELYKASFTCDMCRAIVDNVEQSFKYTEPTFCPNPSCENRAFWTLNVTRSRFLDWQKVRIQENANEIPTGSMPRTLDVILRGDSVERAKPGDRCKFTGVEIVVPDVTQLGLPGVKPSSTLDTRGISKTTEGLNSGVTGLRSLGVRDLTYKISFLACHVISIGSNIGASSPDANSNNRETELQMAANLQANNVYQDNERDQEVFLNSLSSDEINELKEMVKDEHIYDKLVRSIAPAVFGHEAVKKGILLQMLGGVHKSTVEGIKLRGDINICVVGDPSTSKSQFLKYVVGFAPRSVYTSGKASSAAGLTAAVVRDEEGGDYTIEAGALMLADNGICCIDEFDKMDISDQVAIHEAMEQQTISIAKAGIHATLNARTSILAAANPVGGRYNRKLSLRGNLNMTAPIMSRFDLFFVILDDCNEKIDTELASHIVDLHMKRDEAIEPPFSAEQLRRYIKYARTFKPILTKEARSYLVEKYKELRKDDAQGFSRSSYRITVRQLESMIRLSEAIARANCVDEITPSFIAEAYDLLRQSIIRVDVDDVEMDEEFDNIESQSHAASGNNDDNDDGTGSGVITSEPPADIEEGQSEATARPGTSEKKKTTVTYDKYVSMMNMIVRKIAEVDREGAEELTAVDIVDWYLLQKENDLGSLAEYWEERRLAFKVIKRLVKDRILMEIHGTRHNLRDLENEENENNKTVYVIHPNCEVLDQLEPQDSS

Mcm3 = Mcm3 (Saccharomyces cerevisiae, UniProt P24279 1-971)
Sequence of Mcm3 (P24279 whole entry): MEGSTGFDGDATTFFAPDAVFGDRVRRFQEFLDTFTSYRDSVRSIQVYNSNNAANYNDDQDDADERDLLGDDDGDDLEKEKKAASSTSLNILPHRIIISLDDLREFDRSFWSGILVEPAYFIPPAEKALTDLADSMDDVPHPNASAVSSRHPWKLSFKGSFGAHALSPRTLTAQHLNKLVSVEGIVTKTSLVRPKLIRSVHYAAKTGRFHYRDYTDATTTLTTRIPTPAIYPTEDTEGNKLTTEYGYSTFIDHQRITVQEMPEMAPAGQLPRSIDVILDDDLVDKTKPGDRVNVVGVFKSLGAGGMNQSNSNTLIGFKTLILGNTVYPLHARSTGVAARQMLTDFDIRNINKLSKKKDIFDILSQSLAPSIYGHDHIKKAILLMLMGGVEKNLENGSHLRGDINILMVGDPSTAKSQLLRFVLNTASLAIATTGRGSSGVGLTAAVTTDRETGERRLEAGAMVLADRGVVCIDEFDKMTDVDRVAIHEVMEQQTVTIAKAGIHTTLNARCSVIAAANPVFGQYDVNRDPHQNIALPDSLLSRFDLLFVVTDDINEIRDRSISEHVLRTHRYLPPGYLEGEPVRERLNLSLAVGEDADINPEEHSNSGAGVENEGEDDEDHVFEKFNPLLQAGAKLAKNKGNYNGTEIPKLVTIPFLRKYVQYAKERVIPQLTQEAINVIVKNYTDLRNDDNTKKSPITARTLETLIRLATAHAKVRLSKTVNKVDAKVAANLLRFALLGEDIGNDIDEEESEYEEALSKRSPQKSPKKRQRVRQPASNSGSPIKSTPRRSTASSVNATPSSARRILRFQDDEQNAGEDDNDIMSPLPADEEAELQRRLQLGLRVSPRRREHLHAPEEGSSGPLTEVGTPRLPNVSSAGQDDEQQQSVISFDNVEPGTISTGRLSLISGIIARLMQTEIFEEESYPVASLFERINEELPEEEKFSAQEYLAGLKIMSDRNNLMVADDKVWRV

Mcm4 = biological target: T2, Mcm4 (Saccharomyces cerevisiae, UniProt P30665 1-933)
T2 sequence: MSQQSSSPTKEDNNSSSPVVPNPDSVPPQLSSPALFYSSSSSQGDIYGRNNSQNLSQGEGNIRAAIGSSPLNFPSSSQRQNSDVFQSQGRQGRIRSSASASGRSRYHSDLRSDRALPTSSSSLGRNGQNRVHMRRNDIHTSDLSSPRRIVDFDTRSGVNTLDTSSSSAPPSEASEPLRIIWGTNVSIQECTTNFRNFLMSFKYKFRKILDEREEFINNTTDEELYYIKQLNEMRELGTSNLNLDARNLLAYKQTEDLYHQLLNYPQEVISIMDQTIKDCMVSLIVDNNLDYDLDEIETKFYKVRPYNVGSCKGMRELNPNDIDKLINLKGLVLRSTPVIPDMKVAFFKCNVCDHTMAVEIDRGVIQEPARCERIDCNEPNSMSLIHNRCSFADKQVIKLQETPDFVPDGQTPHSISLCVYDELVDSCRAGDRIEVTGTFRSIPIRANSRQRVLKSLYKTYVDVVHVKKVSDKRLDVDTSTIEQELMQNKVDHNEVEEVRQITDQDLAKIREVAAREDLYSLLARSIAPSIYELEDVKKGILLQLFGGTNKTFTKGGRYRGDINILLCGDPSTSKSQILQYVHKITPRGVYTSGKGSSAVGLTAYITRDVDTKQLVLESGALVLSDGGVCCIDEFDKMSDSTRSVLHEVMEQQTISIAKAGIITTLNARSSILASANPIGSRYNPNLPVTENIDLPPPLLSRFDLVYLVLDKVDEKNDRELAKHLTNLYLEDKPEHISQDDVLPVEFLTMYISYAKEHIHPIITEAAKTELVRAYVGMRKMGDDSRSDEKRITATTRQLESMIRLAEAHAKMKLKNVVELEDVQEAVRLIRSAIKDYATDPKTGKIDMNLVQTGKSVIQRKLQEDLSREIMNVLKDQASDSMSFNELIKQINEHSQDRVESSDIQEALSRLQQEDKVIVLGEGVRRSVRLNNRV

Measured: binding result

B1: Mcm7 (natural protein)
chain: MSAALPSIQLPVDYNNLFNEITDFLVTFKQDTLSSDATRNENEDENLDAENIEQHLLEKGPKYMAMLQKVANRELNSVIIDLDDILQYQNEKFLQGTQADDLVSAIQQNANHFTELFCRAIDNNMPLPTKEIDYKDDVLDVILNQRRLRNERMLSDRTNEIRSENLMDTTMDPPSSMNDALREVVEDETELFPPNLTRRYFLYFKPLSQNCARRYRKKAISSKPLSVRQIKGDFLGQLITVRGIITRVSDVKPAVEVIAYTCDQCGYEVFQEVNSRTFTPLSECTSEECSQNQTKGQLFMSTRASKFSAFQECKIQELSQQVPVGHIPRSLNIHVNGTLVRSLSPGDIVDVTGIFLPAPYTGFKALKAGLLTETYLEAQFVRQHKKKFASFSLTSDVEERVMELITSGDVYNRLAKSIAPEIYGNLDVKKALLLLLVGGVDKRVGDGMKIRGDINVCLMGDPGVAKSQLLKAICKISPRGVYTTGKGSSGVGLTAAVMKDPVTDEMILEGGALVLADNGICCIDEFDKMDESDRTAIHEVMEQQTISISKAGINTTLNARTSILAAANPLYGRYNPRLSPLDNINLPAALLSRFDILFLMLDIPSRDDDEKLAEHVTYVHMHNKQPDLDFTPVEPSKMREYIAYAKTKRPVMSEAVNDYVVQAYIRLRQDSKREMDSKFSFGQATPRTLLGIIRLSQALAKLRLADMVDIDDVEEALRLVRVSKESLYQETNKSKEDESPTTKIFTIIKKMLQETGKNTLSYENIVKTVRLRGFTMLQLSNCIQEYSYLNVWHLINEGNTLKFVDDGTMDTDQEDSLVSTPKLAPQTTASANVSAQDSDIDLQDA
binds: all assays above
